Assay results: PMC2841500 (Biochemical Journal, 2010)
Where two headings read alike, the source gives them in different places.

Experiments:
Alba1 (Sso10b) [1] = molecular target: T1, Alba1 (Sso10b) (Sulfolobus solfataricus, UniProt P60849 1-97); assay: EMSA
T1 sequence: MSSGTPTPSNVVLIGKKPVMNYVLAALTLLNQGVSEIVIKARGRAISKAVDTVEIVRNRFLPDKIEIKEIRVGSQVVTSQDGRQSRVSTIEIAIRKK

Alba1 (Sso10b) [2] = molecular target: T1, Alba1 (Sso10b); assay: EMSA; remark: listed apart in the source
pulsed ESR = molecular target: the molecule itself; assay: pulsed ESR
Alba1 F60A [3] = molecular target: T2, Alba1 F60A (Sulfolobus solfataricus, UniProt P60849 1-97, F60A); assay: EMSA
T2 sequence: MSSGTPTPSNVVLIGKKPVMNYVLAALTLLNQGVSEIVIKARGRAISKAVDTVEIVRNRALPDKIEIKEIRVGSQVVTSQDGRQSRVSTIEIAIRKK

Alba1 (Sso10b) [4] = molecular target: T1, Alba1 (Sso10b); assay: EMSA; remark: listed apart in the source
Alba1 (Sso10b) [5] = molecular target: T1, Alba1 (Sso10b); assay: EMSA; remark: listed apart in the source
Alba1 F60A [6] = molecular target: T2, Alba1 F60A; assay: EMSA; remark: listed apart in the source

B1: 30U (ssRNA)
RNA: UUUUUUUUUUUUUUUUUUUUUUUUUUUUUU
**Q.** Which Kd (Alba1 (Sso10b) [1]) does the source give for B1 here?
**A.** 900 ± 38 nM

B2: 16 mer ssRNA (ssRNA)
RNA: CCCGGCGUGCGGCCCG
**Q.** With B2 as the binder, how does the Kd (Alba1 (Sso10b) [2]) read?
**A.** 920 ± 69 nM

B3: spin-labelled Alba R59C (S. solfataricus Alba1 R59C modified with MTSSL) (natural protein, Sulfolobus solfataricus, UniProt P60849 1-97, looked up)
chain: MSSGTPTPSNVVLIGKKPVMNYVLAALTLLNQGVSEIVIKARGRAISKAVDTVEIVRNCFLPDKIEIKEIRVGSQVVTSQDGRQSRVSTIEIAIRKK
modifications: methanethiosulfonate spin label MTSSL on the cysteine at position 59
**Q.** Does B3 bind (pulsed ESR)?
**A.** binds

B4: 39 bp duplex (dsDNA)
DNA 1: CCTCGGTGCTAAGTTGATGCTGGTACTCGGAGTATCCCG
DNA 2: CGGGATACTCCGAGTACCAGCATCAACTTAGCACCGAGG
**Q.** How did the Kd (Alba1 F60A [3]) turn out when B4 was run?
**A.** 520 ± 13 nM

B5: 39 mer ssDNA (ssDNA)
DNA: CCTCGGTGCTAAGTTGATGCTGGTACTCGGAGTATCCCG
**Q.** How did the Kd (Alba1 (Sso10b) [4]) turn out when B5 was run?
**A.** 270 ± 13 nM

B6: 28A (ssRNA)
RNA: AAAAAAAAAAAAAAAAAAAAAAAAAAAA
**Q.** How did the Kd (Alba1 (Sso10b) [5]) turn out when B6 was run?
**A.** 960 ± 30 nM

B7: 16 bp duplex (dsDNA)
DNA 1: CCCGGCGTGCGGCCCG
DNA 2: CGGGCCGCACGCCGGG
**Q.** B7 was tested. Which Kd (Alba1 F60A [6]) did it give?
**A.** 710 ± 20 nM
